test: label from the status in PepcDB records
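Further: failed if final PepcDB status was selected cloned or expressed and not failed if soluble or beyond.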

Sequence | protein production
MQLRTKLVIYSTVCCAFGVLLTLATMKYLFSTSSPEVATPATLPDVQLPELDLAQLQDSVAAIESAIKNTEQFQQAFSLQERLRADQIKHELQKLEQLKQEQLQIKLYKLELLKQGLFNPAPHPANMVPALPVVEQSKLPPLSLDPQAEHTPPIFELVLVILLACSVCALGVAWFTRHLARSLDALEVGLLNFNDNDFSVSIPTNGEGQLKTLAELFNHSAAKLRQERQYIYQRELLLDKVIQSSPNVMLLLNDHQRLMYANDAARHLFQIKGKMEGLSLEELLQELPEALALALKQEKSGLFTMGEDDAETWYLSRGQFLLNNQQHNLILLKQMTRELNRQEVAVWKKVIRIISHELNNSVAPIASMVNSGRLLTKDLDNPKLKLIFDTIESRTNHLSQFIYNYARFAKLPLPQRRKVAWSQLIEQLTQHYPFSLTHELPIEDGYVDQGQMEQVLLNLLKNAHESGSNPEEVTLSIRYQKMVDGGGFSIKIEDRGSGMSEEVLEQALLPFYSTKQSGTGLGLPLCREIIEAHDGSISMHNRTEGGLSVLLWLPQ | failed
MQLYYLGPKGTFSYLACRQYFSENEATFQPKSNLFEVIKAVADDDTSIGVVPIENSIEGTINIVADALAQQDVFAHGEIRLDINFALYGNGTDSISDIKKVYSIAPAISQTTNYIHQHQFDYDYVDSTIQSLTKIENGVAAIAPLGSGEAYGFTPIDTHIEDYPHNVTRFLVIKNQQQFDQNATSLMFLITPMHDKPGLLASVLNTFALFNINLSWIESRPLKTQLGMYRFFVQADSAITTDIKKVIAILETLDFKVEMIGAFN | not failed
MQMLSRIHRETCSQDVNECGMKPRPCQHRCVNTHGSYKCFCLSGHMLMPDATCVNSRTCAMINCQYSCEDTEEGPQCLCPSSGLRLAPNGRDCLDIDECASGKVICPYNRRCVNTFGSYYCKCHIGFELQYISGRYDCIDINECTMDSHTCSHHANCFNTQGSFKCKCKQGYKGNGLRCSAIPENSVKEVLRAPGTIKDRIKKLLAHKNSMKKKAKIKNVTPEPTRTPTPKVNLQPFNYEEIVSRGGNSHGGKKGNEEKMKEGLEDEKREEKALKNDIEERSLRGDVFFPKVNEAGEFGLILVQRKALTSKLEHKDLNISVDCSFNHGICDWKQDREDDFDWNPADRDNAIGFYMAVPALAGHKKDIGRLKLLLPDLQPQSNFCLLFDYRLAGDKVGKLRVFVKNSNNALAWEKTTSEDEKWKTGKIQLYQGTDATKSIIFEAERGKGKTGEIAVDGVLLVSGLCPDSLLSVDD | failed
MQMMSELFASGTVVDAVLIFLLVEAIGVIGYWLWRKHGIAPADFLPGMISGALMLLALRAVLAGAGWMVPTLCLLAAGGAHLVDVLRRWR | failed
MQMNSEKFFKLFRVGETVLVEYSGTSRAELLLYYIVNNSKLPIVVDDILDTYYEFYTRLKVAGFDVAPLENVQVIKMGGTKDIGRVIGRLNISKYVISEQEYMEIVSQLKDYPVINPVLGLHKLILLGNTFENINVVKMVSNYVGREERIAFYFVNRNVIEKHSSPILDLLEEVVTSILEITDSGIIIKKSIKDEIAGKIVSPLLNF | not failed
MQNKARKNYIIYVLMLLLFGGLIYVAIEEGDRFSHHAANTLNTVQDGPFAMFLQFMQDNLHHPLTTLLIQIIAVLLMVRLFGYLFSLIGQPGVIGEIVAGIVLGPSVLGLFFPEAFHFLFPVHSLTNLELLSQVGLILFMFVIGMELDFSVLKNKINETLVISHAGILVPFFLGILSSYWIYETYAADHTPFLPFALFIGISMSITAFPVLARIIQERNMTKTPLGTLAIASAANDDVTAWCLLAVVIAISKAGSFASALYSVGLAVAYIAVMFLVVRPFLKKVGEVYANKEAINKTFVAFILLILIISSCLTEIIGIHALFGAFMAGVVMPSNLGFRKVMMEKVEDISLVFFLPLFFAFTGLRTEIGLINSPELWMVCLLLVTVAIVGKLGGCAIAARLVGESWKDSLTVGTLMNTRGLMELVALNIGYEMGVLPPSIFVILVIMALVTTFMTTPLLHLVERFFVHREEKLSLKRKLIFCFGRPESGRSLLSIYDLLFGKQLKKEHVIAAHYTVGTDLNPLDAQHYESESFALLNQRAVELNIQVDNHYRVTDKLVQEMIHFIRKEHPDMLLLGAGSHYRPEMPGTPGAILWLTLFRDKIDDIMEQVKCPVAVFVNRNYREGALVSFVLGGMIDVFLLSYLNIMLQNGHSVRLFLFETDDEEFHQCIDDLLAHYADQIVVVWFAGVEELVTKERDGLLVMSHLSYTKLSEDELVMRELSSLLVIRRNKNKGEKNERLEIG | failed
MQNMKNQVRGSGMDARSNPANVSDGLQNSSGHIGTNTRYRLTKLGEQMARLPIDPKIARILLAAKKHDCMAEILVIASALSIQDPRERPLEARDAAAKAHERFTDKQSDFLTYLNIWDSFQRERDKGLSNKQLVQWCRQYFLSHLRMREWRELHHQLAQTAIEMGLTTKEAAFRRPPEVKQLTSSENAGDQDLSAKLKQKQLDKKQHRTQIRATKEAGYEQIHRALLTGLIANVGMKSPDSNDYTGARGSRFHLFPASALFKAKPKWVMAAELVETTRLYARDVAVIQPEWIEQEAPHLVRYHYFEPHWEQKRGEVVASERVTFYGLTVLPRRPVSYGKVAPEEAREIFIRSALVAQEYDLKADFFVHNKKLIKEITELEHKSRKQDVLVDDEALFAFYHERLPDFYMADSVSEGLCPANPQQTTPSPVGKGWGEGKTVAAQTNFSATAANPLPNPLPQEREQSASVSTVSGSLKTMSCEARLNFCEAKTKTESSLHSQRLSENYTPPFSDGLRPANPQQTTPSPVGEGWGEGKTVAAQTNFSATAANPLPQEREQSASALTVSDDPKPKKQPASQKGRLKPLPLADIRTFEAWLKTAERDNPRLLFLSRDDLMQHAAAHITEEQFPKHWQTADGKFKLSYRFEPHHPLDGVTLTLPLTVLNRISPAALEWLVPGMIREKIQLQIKALPKQIRRICVPVPEFITQFLSQNPDRNAPILPQLAQAIAKTAGDIRILEQINQDEWAAFRLPEHCYFNLRIIDDGEQELAMGRDLIQIQQQLGKAATTTFRDNTQEFERDNVTAWDIGILPESIKFARGKQQLTGYLGLQKEKDGRIALRLFDTSAAAGHAHRLGVIELMKLQLKEQVKDLNKGIQGFTQAAMLLKHINADTLRDDLTQAVCDRAFIGEDKLPRNEKAFKEQIKRARSRLPAVKEALSRYLQETAAAYAELNGKLGKHPLTHLLRLRLQTLLAPGFATRTPWAQWPRLPIYLKAMTLRLEKYSSNPARDAAREADIQELEQMWQEKTDGLAKQGQPVSDGLAAFKWMIEELRVSLFAQELKTPYPVSVKRLLKMWEILL | failed
MQNPAGNPYNLDSFWFEQLMSHPSLNHAKMATRIQDETLEREVADLVISTLNLDVSPESVDPEAPLYREGLGLDSIDILEIALVVSKRYGFQLRADNEDNVRIFGSLRSLCQHIAANRVECLEHHHHHH | not failed
MQNPIDSLLYVKISAEQAGKIFENLESSIPLPIQLSEPGQKEDFKAENIKPEMILAGMLTVFAYDRENPHITYYRKIFNLLRPDIRKEMTEAAIIKIKNNDFDMAEEILLSLEGLNPDDGITKLNLALLMEERSQFCEMRELFEDALSFNKRAEELYSELILFEPPLPGVFFNAAYFFIKQKNYIKAKSLLKTYLEIENDSSETAEFRKAKASELLKTISEQALDDELFQKAYKCIDLGEEEKAAESIKLFLRKNPKVWNAWFLLGWALRRMGRWEDARSSFLKTIELLENSEISDKEPLCDVYNELAICLMELELFDEAEKHLINALSLDSENIKIISNLGTLALKQGKQEEAEAFFRTVLEINPDDKIALNVLGKPRA | failed
MQPETSAQYQHRFSQAIRGGEAADGLPQDRLNVYIRLIRNNIHSFIDRCYTETRQYFDSKEWSRLKEGFVRDARAQTPYFQEIPGEFLQYCQSLPLSDGILALMDFEYTQLLAEVAQIPDIPDIHYSNDSKYTPSPAAFIRQYRYDVTHDLQEAETALLIWRNAEDDVMYQTLDGFDMMLLEIMGSSALSFDTLAQTLVEFMPKADNWKNILLGKWSGWIEQRIIIPSLSAISENMEGNSPSQNHLSA | not failed
MQPFRVTLVEDEPSHATLIQYHLNQLGAEVTVHPSGSAFFQHRSQLSTCDLLIVSDQLVDLSIFSLLDIVKEQTKQPSVLILTTGRHELIESSEHNLSYLQKPFAISELRAAIDYHKPSMGVTMNV | not failed
MQPGRSKAIPSRNASDKAYEPAVLLMRARVLHQQGQLDEARSAYKKVLKKAPDNFMALHFYALAEYQSGNAELGIKTLKRALLADPKSAQAQSDMGSMLIAVGRFADSLASCDKAIAIDPTLMLAYANRGLALSALARYEDAIASFDKAIELMPDRADTWNDRGNALHKLGRYTEALESYDKAIEIDPLSDVAFMNRAGTYKDLKQLDKALASYDRALSIGKRPVQAGLARAETLLFMRNVKDAMATCTAVLKVEPNSAIALTLLGNCMASLGDAETAIALHSRALELMPNYEAAISSKIFSMDFCAGSDVEAQQAVRSSWWTQIGAPIYRACATPPTNDRDPDRRLVVGYVSADFRAHSAAFSFRPVIEHHDHNQFEVVLYSGVVVPDDSTRAFEAIADKWRDATLMSDQGLADQIKEDKVDILVDLSGHSNGNRLRVFARKPAPVQVTAWGHATGTGLPVMDYLLGDPVAIPVEDRHFYAEAVYDLPSIVIIEPVPQQWRSLELPFDRNGYLTYGSLNRISKISDAAIEVWSQVLAASPTSRLILKDHQIDDPAVRQTLLEKFGARGIAAGRITLLGSSSRQDHLETLKQIDLCLDPFPQAGGVSTWEALHMGVPVVSRLGHTVPSRVGCAVLAAAGLPDFIAPNDARYIEIASKPELERLRSIRRGLRDFILQRCGPAAYTRAVEDAYRTMWKRWCAAPFDEAKDRALRRGR | failed
MQPGWMSSRFYQTCDWIWKLAYINLLWLSGTLLGLVVLGFLPATTAMFTVLRKWFTGNPDVAITRTFFQAYKNEFLKINLLGAVLLLGAYILYFNYMYLGTVEGTVHMVLSLGWYAFLILYIITLFYIIPAYVHYNLKLFQYIKTALIIGFVNPLALVTLAISIGLLGYLLYLVPGLIPFFGPSTFALIVMWCANMSFNRVEKKKEKLELAGQN | failed
MQQFATLSLASLLMLGTFTAFAAENGDAPASGWHIDDSATKGASGQQGMFDGVRLTEQQRQQMRDLMHQSRQDKPAFNTEDVKAMHKLVTAETFDEAAVRAQITRMMSVQIERQIQMTRVRNQMYNLLTPAQKEILELKHKQRMKEMQQQISMFNQMVAPSSGTTNHTETDSPELEHHHHHH | not failed
MQQLSFLPGEMTPGERSLILRALQTLDRHXHEPGVAFTSTRAAREWLILNMAGLEREEFRVLYLNNQNQLIAGETXFTGTINRTEVHPREVIKRALYHNAAAVVLAHNHPSGEVTPSKADRLITERLVQALGLVDIRVPDHLIVGGNQVFSFAEHGLL | failed
MQQRRPVRRALLSVSDKAGIVEFAQALSARGVELLSTGGTARLLAEKGLPVTEVSDYTGFPEMMDGRVKTLHPKVHGGILGRRGQDDAIMEEHQIQPIDMVVVNLYPFAQTVAREGCSLEDAVENIDIGGPTMVRSAAKNHKDVAIVVKSSDYDAIIKEMDDNEGSLTLATRFDLAIKAFEHTAAYDSMIANYFGSMVPAYHGESKEAAGRFPRTLNLNFIKKLDMRYGENSHQQAAFYIEENVKEASVATATQVQGKALSYNNIADTDAALECVKEFAEPACVIVKHANPCGVAIGNSILDAYDRAYKTDPTSAFGGIIAFNRELDAETAQAIISRQFVEVIIAPSASEEALKITAAKQNVRVLTCGQWGERVPGLDFKRVNGGLLVQDRDLGMVGAEELRVVTKRQPSEQELRDALFCWKVAKFVKSNAIVYAKNNMTIGIGAGQMSRVYSAKIAGIKAADEGLEVKGSSMASDAFFPFRDGIDAAAAAGVTCVIQPGGSIRDDEVIAAADEHGIAMLFTDMRHFRH | not failed
MQQVFNVSVPVPDDVVIISKEEYLNLLSDNEQGKWWDIDNLQELLGIGRSKLINDILLNPDIKKEVDLSINPNGFIVYPKGKGSRYKILATKARKYFEDNFGSILLNS | failed
MQREKTQTNLRLDEGGGSVWQKCSRHEGRFVCVAGVCPYCLHERLSSLCPDCAHDLPCSCTPRASVSSRGEGDVSFARIGSVGRVANLIECEPAFRRSTSITGPYFWSAKPEPILETEKDLKPGRGRWLWRLFRGNREEETKIKAAKVMKKSNSVAGEVLFSPTPVTSKGNGWYFPSPIKVFRQSRVSKMIFQQRSPLYRG | failed

Reference: a protein production outcome set (Wang et al. 2014)
